Results published in US20200339676A1 (University of California, published 2020).

Assays:
[1] = target: Endogenous NOTCH2 (MDA-MB-231 cell lysate) (UniProt Q04721 26-2471, limits assumed); assay: co-immunoprecipitation of endogenous proteins, MDA-MB-231 lysates (data not shown)
Description: (§1) Notch receptor activation can be regulated through direct interactions with binding partners²⁴. […] To address this possibility, co-immunoprecipitation experiments were performed using MBA-MD-231 cells lysates, which express detectable levels of all four Notch receptors (NOTCH1-4). Endogenous ROBO1 co-immunoprecipitated with NOTCH4, but not […], NOTCH2 or NOTCH3 (FIG. 3H and data not shown). Next, the expression and subcellular localization of the NOTCH4 intracellular domain (N4-ICD) and HES1 was examined in control (Scr) and Robo1 (siR1) knockdown HC11 cells. Expression of Robo1 was inhibited in HC11 cells that were then primed for differentiation as described above. […] This effect was not observed in control Robo1 knockdown cells engineered to overexpress Robo1 (siR1+o/e) or cells treated with the γ-secretase inhibitor GSI (siR1+GSI) (FIGS. 3I-3K).
(§2) Adherent cells were lysed in 1 mL of 1× lysis buffer ([…] NaCl, 10 mM Tris-HCl pH8, […] EDTA, 1 mM sodium orthovanadate) supplemented with 1 percent Igepal NP40 (Sigma), 1 mM phenylmethanesulfonylfluoride (PMSF), 1 mM leupeptin, 1 mM aprotinin, and phosphatase inhibitors (Roche Complete). Cell lysate was incubated for 15 minutes at 4° C. with gentle rocking followed by centrifugation at 12,000 rpms for 10 minutes. […]

[2] = target: Endogenous NOTCH3 (MDA-MB-231 cell lysate) (UniProt Q9UM47 40-2321, limits assumed); assay: as above
Description: as §1, §2

[3] = target: Endogenous NOTCH1 (MDA-MB-231 cell lysate) (UniProt P46531 19-2555, limits assumed); assay: co-immunoprecipitation of endogenous proteins, MDA-MB-231 lysates, Western blot
Description: as §1, §2

Measured: binding result

Endogenous NOTCH3 (MDA-MB-231 cell lysate), sequence (Q9UM47 40-2321 limits assumed): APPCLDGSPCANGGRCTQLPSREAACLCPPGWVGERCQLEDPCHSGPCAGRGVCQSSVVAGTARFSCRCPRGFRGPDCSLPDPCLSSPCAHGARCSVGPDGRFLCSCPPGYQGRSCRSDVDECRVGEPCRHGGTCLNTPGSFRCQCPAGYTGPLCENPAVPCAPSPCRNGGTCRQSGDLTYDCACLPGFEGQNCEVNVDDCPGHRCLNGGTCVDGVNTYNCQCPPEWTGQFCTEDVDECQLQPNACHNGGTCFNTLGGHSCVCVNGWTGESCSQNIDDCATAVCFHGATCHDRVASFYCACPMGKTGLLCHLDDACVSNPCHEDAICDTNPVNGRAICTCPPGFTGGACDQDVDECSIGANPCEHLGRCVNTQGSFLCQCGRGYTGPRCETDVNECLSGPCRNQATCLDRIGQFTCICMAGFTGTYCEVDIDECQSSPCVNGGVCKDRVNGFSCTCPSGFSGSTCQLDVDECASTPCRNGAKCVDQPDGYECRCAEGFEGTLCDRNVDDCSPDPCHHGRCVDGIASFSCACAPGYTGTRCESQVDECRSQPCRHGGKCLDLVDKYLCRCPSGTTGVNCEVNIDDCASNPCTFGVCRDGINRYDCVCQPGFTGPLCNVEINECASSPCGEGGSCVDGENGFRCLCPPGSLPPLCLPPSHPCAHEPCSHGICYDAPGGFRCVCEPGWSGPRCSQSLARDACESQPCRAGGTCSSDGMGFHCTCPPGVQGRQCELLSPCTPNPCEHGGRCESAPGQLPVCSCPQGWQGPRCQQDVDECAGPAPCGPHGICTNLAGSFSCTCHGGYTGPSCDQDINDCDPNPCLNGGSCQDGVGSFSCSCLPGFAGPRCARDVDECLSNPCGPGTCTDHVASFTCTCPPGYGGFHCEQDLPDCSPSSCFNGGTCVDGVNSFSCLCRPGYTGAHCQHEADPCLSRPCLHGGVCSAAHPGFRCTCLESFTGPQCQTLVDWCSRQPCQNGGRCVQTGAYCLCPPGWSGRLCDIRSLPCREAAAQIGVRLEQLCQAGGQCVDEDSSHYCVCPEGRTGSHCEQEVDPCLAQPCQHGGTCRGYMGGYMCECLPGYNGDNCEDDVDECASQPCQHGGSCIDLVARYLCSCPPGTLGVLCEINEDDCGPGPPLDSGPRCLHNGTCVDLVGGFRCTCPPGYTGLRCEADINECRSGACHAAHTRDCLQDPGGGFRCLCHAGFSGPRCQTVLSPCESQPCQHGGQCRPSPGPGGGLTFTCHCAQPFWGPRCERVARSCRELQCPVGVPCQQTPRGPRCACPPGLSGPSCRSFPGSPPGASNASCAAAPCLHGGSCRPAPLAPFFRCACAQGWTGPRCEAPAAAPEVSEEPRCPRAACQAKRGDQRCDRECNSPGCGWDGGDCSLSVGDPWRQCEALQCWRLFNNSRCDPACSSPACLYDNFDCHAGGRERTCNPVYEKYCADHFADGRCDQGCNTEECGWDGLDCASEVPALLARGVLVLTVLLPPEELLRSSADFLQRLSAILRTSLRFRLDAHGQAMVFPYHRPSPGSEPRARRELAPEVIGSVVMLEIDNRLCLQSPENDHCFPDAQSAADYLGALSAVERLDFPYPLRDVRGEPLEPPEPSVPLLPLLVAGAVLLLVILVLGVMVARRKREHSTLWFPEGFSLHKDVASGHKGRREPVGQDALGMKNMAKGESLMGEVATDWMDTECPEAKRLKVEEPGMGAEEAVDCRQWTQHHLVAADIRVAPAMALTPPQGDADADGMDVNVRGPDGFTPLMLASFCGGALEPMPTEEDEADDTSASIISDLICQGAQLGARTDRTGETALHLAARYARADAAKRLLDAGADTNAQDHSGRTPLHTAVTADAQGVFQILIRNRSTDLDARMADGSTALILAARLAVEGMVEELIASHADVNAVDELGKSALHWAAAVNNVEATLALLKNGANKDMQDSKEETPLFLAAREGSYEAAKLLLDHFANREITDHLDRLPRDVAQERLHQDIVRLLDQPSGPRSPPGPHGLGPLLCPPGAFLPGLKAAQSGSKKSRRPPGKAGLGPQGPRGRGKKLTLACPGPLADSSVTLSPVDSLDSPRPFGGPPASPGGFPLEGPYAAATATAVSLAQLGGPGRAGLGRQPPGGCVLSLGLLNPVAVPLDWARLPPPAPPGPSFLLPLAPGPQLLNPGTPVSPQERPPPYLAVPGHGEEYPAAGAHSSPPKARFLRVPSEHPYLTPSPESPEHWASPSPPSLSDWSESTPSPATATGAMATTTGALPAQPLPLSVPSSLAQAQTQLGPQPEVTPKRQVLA
Endogenous NOTCH2 (MDA-MB-231 cell lysate), sequence (Q04721 26-2471 limits assumed): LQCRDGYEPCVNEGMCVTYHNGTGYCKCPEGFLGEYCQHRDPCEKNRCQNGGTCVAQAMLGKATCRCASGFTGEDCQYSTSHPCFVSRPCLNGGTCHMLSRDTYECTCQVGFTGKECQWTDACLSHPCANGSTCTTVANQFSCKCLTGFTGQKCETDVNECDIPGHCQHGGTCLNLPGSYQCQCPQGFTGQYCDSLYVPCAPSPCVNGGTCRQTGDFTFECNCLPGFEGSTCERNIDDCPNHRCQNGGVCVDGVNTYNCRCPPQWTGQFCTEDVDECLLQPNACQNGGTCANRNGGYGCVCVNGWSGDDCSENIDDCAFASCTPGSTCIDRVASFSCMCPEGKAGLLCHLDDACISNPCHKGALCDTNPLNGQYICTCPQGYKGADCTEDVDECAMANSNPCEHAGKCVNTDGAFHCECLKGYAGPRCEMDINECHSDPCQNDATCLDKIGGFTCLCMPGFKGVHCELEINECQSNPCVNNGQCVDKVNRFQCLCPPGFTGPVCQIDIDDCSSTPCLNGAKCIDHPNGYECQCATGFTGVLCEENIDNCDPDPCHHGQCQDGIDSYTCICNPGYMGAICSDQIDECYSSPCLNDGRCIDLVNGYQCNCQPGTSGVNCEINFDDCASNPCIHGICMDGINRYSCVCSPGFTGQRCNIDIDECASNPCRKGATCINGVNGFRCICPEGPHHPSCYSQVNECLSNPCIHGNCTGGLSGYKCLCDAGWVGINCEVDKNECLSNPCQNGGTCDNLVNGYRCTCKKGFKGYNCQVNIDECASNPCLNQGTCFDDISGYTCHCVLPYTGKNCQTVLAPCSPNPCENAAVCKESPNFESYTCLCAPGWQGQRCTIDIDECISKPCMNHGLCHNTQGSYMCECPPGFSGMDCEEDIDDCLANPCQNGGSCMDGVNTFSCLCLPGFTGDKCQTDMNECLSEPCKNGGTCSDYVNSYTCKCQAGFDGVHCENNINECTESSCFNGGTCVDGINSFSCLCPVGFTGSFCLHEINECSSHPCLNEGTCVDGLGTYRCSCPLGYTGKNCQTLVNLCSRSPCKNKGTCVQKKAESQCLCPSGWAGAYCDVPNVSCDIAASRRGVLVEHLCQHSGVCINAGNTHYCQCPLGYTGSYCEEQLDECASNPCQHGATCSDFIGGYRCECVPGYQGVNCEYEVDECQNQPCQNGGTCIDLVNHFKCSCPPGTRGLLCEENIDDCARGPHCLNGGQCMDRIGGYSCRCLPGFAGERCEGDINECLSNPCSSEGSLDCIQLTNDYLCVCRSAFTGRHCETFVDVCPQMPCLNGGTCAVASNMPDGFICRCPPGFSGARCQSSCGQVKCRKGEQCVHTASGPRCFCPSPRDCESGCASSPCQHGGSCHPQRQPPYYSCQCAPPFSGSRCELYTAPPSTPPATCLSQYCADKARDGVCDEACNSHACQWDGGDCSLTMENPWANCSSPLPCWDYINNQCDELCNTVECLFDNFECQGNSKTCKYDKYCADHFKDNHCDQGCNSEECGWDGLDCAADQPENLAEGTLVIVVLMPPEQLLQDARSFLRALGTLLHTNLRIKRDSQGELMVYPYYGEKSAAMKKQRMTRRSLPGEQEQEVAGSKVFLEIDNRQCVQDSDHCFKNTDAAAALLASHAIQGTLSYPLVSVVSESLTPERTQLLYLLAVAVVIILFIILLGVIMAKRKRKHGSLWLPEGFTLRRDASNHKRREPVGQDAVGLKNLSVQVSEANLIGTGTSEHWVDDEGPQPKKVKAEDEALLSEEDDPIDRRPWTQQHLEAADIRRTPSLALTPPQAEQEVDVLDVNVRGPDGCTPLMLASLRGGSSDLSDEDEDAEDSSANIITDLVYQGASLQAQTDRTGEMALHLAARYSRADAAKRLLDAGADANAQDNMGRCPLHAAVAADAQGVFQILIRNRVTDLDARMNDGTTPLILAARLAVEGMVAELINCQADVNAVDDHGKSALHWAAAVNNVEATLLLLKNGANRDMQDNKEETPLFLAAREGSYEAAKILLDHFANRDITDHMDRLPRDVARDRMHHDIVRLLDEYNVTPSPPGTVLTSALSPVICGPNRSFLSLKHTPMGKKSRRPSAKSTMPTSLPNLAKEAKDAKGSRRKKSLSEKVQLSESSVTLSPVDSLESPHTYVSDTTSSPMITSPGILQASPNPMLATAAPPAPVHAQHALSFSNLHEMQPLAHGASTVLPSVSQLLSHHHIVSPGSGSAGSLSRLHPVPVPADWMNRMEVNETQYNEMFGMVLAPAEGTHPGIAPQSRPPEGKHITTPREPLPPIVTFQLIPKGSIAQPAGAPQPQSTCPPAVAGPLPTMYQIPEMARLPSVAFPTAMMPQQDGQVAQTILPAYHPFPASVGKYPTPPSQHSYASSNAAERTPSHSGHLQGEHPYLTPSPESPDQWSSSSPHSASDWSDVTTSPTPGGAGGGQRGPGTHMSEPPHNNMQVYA

B1: Endogenous ROBO1 (MDA-MB-231 and HEK293 cell lysates) (receptor, UniProt Q9Y6N7 26-1651, looked up)
chain: QLIPDPEDVERGNDHGTPIPTSDNDDNSLGYTGSRLRQEDFPPRIVEHPSDLIVSKGEPATLNCKAEGRPTPTIEWYKGGERVETDKDDPRSHRMLLPSGSLFFLRIVHGRKSRPDEGVYVCVARNYLGEAVSHNASLEVAILRDDFRQNPSDVMVAVGEPAVMECQPPRGHPEPTISWKKDGSPLDDKDERITIRGGKLMITYTRKSDAGKYVCVGTNMVGERESEVAELTVLERPSFVKRPSNLAVTVDDSAEFKCEARGDPVPTVRWRKDDGELPKSRYEIRDDHTLKIRKVTAGDMGSYTCVAENMVGKAEASATLTVQEPPHFVVKPRDQVVALGRTVTFQCEATGNPQPAIFWRREGSQNLLFSYQPPQSSSRFSVSQTGDLTITNVQRSDVGYYICQTLNVAGSIITKAYLEVTDVIADRPPPVIRQGPVNQTVAVDGTFVLSCVATGSPVPTILWRKDGVLVSTQDSRIKQLENGVLQIRYAKLGDTGRYTCIASTPSGEATWSAYIEVQEFGVPVQPPRPTDPNLIPSAPSKPEVTDVSRNTVTLSWQPNLNSGATPTSYIIEAFSHASGSSWQTVAENVKTETSAIKGLKPNAIYLFLVRAANAYGISDPSQISDPVKTQDVLPTSQGVDHKQVQRELGNAVLHLHNPTVLSSSSIEVHWTVDQQSQYIQGYKILYRPSGANHGESDWLVFEVRTPAKNSVVIPDLRKGVNYEIKARPFFNEFQGADSEIKFAKTLEEAPSAPPQGVTVSKNDGNGTAILVSWQPPPEDTQNGMVQEYKVWCLGNETRYHINKTVDGSTFSVVIPFLVPGIRYSVEVAASTGAGSGVKSEPQFIQLDAHGNPVSPEDQVSLAQQISDVVKQPAFIAGIGAACWIILMVFSIWLYRHRKKRNGLTSTYAGIRKVPSFTFTPTVTYQRGGEAVSSGGRPGLLNISEPAAQPWLADTWPNTGNNHNDCSISCCTAGNGNSDSNLTTYSRPADCIANYNNQLDNKQTNLMLPESTVYGDVDLSNKINEMKTFNSPNLKDGRFVNPSGQPTPYATTQLIQSNLSNNMNNGSGDSGEKHWKPLGQQKQEVAPVQYNIVEQNKLNKDYRANDTVPPTIPYNQSYDQNTGGSYNSSDRGSSTSGSQGHKKGARTPKVPKQGGMNWADLLPPPPAHPPPHSNSEEYNISVDESYDQEMPCPVPPARMYLQQDELEEEEDERGPTPPVRGAASSPAAVSYSHQSTATLTPSPQEELQPMLQDCPEETGHMQHQPDRRRQPVSPPPPPRPISPPHTYGYISGPLVSDMDTDAPEEEEDEADMEVAKMQTRRLLLRGLEQTPASSVGDLESSVTGSMINGWGSASEEDNISSGRSSVSSSDGSFFTDADFAQAVAAAAEYAGLKVARRQMQDAAGRRHFHASQCPRPTSPVSTDSNMSAAVMQKTRPAKKLKHQPGHLRRETYTDDLPPPPVPPPAIKSPTAQSKTQLEVRPVVVPKLPSMDARTDRSSDRKGSSYKGREVLDGRQVVDMRTNPGDPREAQEQQNDGKGRGNKAAKRDLPPAKTHLIQEDILPYCRPTFPTSNNPRDPSSSSSMSSRGSGSRQREQANVGRRNIAEMQVLGGYERGEDNNEELEETES
notes: Endogenous full-length receptor in detergent cell lysate, immunoprecipitated with an anti-ROBO1 antibody; Human is inferred from the cell lines; also called R1
no binding: all assays above
